{
  "source": "patent US20220127569A1",
  "about": "“METHODS OF PROMOTING THYMIC EPITHELIAL CELL AND THYMIC EPITHELIAL CELL PROGENITOR DIFFERENTIATION OF PLURIPOTENT STEM CELLS, RESULTING CELLS, AND USES THEREOF” (THE TRUSTEES OF COLUMBIA UNIVERSITY IN THE CITY OF NEW YORK, priority 2019, published 2022)",
  "molecules": {"B1": {"name": "Activin A: human activin A used in endoderm induction medium (protein, UniProt P08476 311-426, looked up)", "Inhibin beta A chain": "GLECDGKVNICCKKQFFVSFKDIGWNDWIIAPSGYHANYCEGECPSHIAGTSGSSLSFHSTVINHYRMRGHSPFANLKSCCVPTKLRPMSMLYYDDGQNIIKKDIQNMIVEECGCS"}, "B2": {"name": "BMP4: human Bone Morphogenic Protein 4 (protein, UniProt P12644 293-408, looked up)", "Bone morphogenetic protein 4": "SPKHHSQRARKKNKNCRRHSLYVDFSDVGWNDWIVAPPGYQAFYCHGDCPFPLADHLNSTNHAIVQTLVNSVNSSIPKACCVPTELSAISMLYLDEYDKVVLKNYQEMVVEGCGCR"}, "B3": {"name": "Noggin: recombinant human Noggin, a BMP4 antagonist and/or inhibitor (protein, UniProt Q13253 28-232, looked up)", "Noggin": "QHYLHIRPAPSDNLPLVDLIEHPDPIFDPKEKDLNETLLRSLLGGHYDPGFMATSPPEDRPGGGGGAAGGAEDLAELDQLLRQRPSGAMPSEIKGLEFSEGLAQGKKQRLSKKLRRKLQMWLWSQTFCPVLYAWNDLGSRFWPRYVKVGSCFSKRSCSVPEGMVCKPSKSVHLTVLRWRCQRRGGQRCGWIPIQYPIISECKCSC"}},
  "key": {"NSG mice": {"system": "NSG mice", "experiment": "Teratoma formation after hES-TEP transplantation in mice", "type": "in vivo, mouse", "conditions": "mice grafted with day 30 hES-TEPs treated with YM155", "description": "Six to ten week old NSG mice were thymectomized as described (Khosravi-Maharlooei et al. 2020) and allowed to recover for at least 3 weeks. After recovery, animals were conditioned with 1.8 Gy total body irradiation (TBI) via X-rays. Cryopreserved fetal swine thymus (60-90 days gestation) was thawed in Medium 199 supplemented with DNAse, gentamicin and HEPES as above. Fetal swine fragments (1-2 mm^3) were injected or not with 2×10^5 hES-derived TEPs with a 28 gauge syringe and coated with 50% matrigel (Corning) in Medium 199. Four to 24 hours after TBI, 1-2×10^6 hES-derived TEPs mixed with 1-2×10^6 thymic mesenchymal cells, 1-2×10^6 thymic mesenchymal cells alone, fetal swine thymus injected with hES-TEPs or fetal swine thymus alone were implanted beneath the kidney capsule and 2×10^5 fetal human CD34+ cells were injected intravenously. Peripheral human immune reconstitution was assayed every 2-3 weeks post-grafting after full recovery as indicated. Blood was collected from the tail vein and immune populations enriched by density gradient centrifugation with Ficoll as described above. […] Gene correlations were evaluated with Pearson Correlation Coefficient with p<0.05 considered significant, linear regression was also performed and r-square determined. Euthanasia due to teratoma growth was plotted on a Kaplan-Meyer plot and analyzed by Mantel Cox Log-rank test to determine p-value. […]"}, "pluripotent cells": {"system": "pluripotent cells", "experiment": "OCT4 expression (qPCR) in day 30 hES-TEP cultures after survivin inhibitor treatment", "type": "cell-based, human", "conditions": "YM155 20 nM in the final 24 hours of culture, protocol #4c vs #4c+YM155", "description": "After 108 hours in total on low-adherence plates with endoderm induction media (described above), embryoid bodies were collected and, without being trypsinized, plated on matrigel-coated, 24-well tissue culture plates (approximately 50,000-70,000 cells/well) in SFD medium supplemented with 200 ng/mL recombinant human (rh) Noggin and 10 μM SB431542 (NS) (as described in established protocols Green et al. 2011), with Retinoic Acid (0.25 μM) and FGF8b 50 ng/mL (as a novel modification of this protocol) for 48 hours. […]\n(§1) Quantitative Real-Time PCR Total RNA from clusters of ES cells differentiated for the indicated time with the indicated culture method was extracted using Trizol (Invitrogen), and Direct-zol RNA Miniprep Kit (Zymo Research) according to the manufacturer's instructions. […] Real-time quantitative PCR was performed in 20 ul volume using ABI Power SYBR Green PCR Master Mix on an ABI ViiA7 Thermocycler (Applied Biosystems Life Technologies). […] Quantification of each gene transcript was obtained by comparing the average of triplicate experimental CT values to a standard curve of serially diluted genomic DNA for each primer target and then normalized by dividing by the CT housekeeping gene b-Actin."}, "ESCs": {"system": "ESCs", "experiment": "Flow cytometry / efficiency of definitive endoderm and anterior foregut endoderm induction", "type": "cell-based, human", "conditions": "day 4.5 dissociated embryoid bodies", "description": "The differentiation was performed as described Huang et al. 2014 in serum-free differentiation (SFD) medium consisting of DMEM/F12 (3:1) (Life Technologies) supplemented with N2 [Gibco (Life Technologies)], B27 (Gibco), ascorbic acid (50 μg/ml, Sigma), Glutamax (2 mM, Life Technologies), monothioglycerol (0.4 μM, Sigma), 0.05% bovine serum albumin (BSA) (Life Technologies) and 1% penicillin-streptomycin (Thermo Fisher Scientific, Waltham, Mass.). Cells were then briefly trypsinized (0.05%, 1 min at 37° C.) into single cell suspension and plated onto low attachment 6-well plates [Costar 2 (Corning Incorporated, Tewksbury Mass.)] to form embryoid bodies in serum-free differentiation medium containing human BMP4, 0.5 ng/ml, human bFGF, 2.5 ng/ml (R&D Systems) and human activin A, 100 ng/ml (R&D Systems) for 84 hours (3.5 days approximately) on low-adherence plates. Embryoid bodies were then collected, briefly trypsinized (0.05%, 1 min at 37° C.) into 3-10 small cell clumps and resuspended again in endoderm induction medium for another 24 hours. Cells were fed every 24-48 hr (depending on the density) and maintained in a 5% CO2/5% O2/90% N2 environment. […]\nHuman immune reconstitution and differentiation efficiency of hES-TEP cultures were determined by multi-parametric flow cytometry. […]"}, "hESCs": {"system": "hESCs", "experiment": "qPCR gene expression (PAX9, FOXN1) in hESC-derived TEP cultures up to day 30", "type": "cell-based, human", "description": "After 108 hours in total on low-adherence plates with endoderm induction media (described above), embryoid bodies were collected and, without being trypsinized, plated on matrigel-coated, 24-well tissue culture plates (approximately 50,000-70,000 cells/well) in SFD medium supplemented with 200 ng/mL recombinant human (rh) Noggin and 10 μM SB431542 (NS) (as described in established protocols Green et al. 2011), with Retinoic Acid (0.25 μM) and FGF8b 50 ng/mL (as a novel modification of this protocol) for 48 hours. For pharyngeal endoderm, the resulting cells were then treated for 24 hours with FGF8b (50 ng/mL) and Retinoic Acid ([…]) followed by 8 days with FGF8b (50 ng/mL) and Sonic Hedgehog (Shh) (100 ng/mL) (FIG. 1B). For the 3rd pharyngeal pouch specification, cells were then exposed to rhNoggin (200 ng/mL) for 6 days, and then to BMP4 (10 ng/mL) until day 30 of differentiation (FIG. 2A). To avoid the formation of teratomas after engrafting in mice, cells were also exposed to survivin inhibitor YM155 (20 nM) (Lee et al. 2013)) for 24 hours during the last step in the later experiments (FIG. 4A). During the entire process, cell cultures were maintained in a 5% C02/air environment at 37° C. Cells were fed every 24 hours.\nas §1, with “instructions. NanoDrop 2000 spectrophotometer (ThermoFisher Scientific) was used to determine RNA concentration.” for “instructions.”"}},
  "data": [
    {"molecule": "COCCn1c2c([n+](Cc3cnccn3)c1C)C(=O)c1ccccc1C2=O", "note": "[YM155]", "values": [
      {"measurement": "animals developing teratomas", "setting": "NSG mice", "value": "3 of 15"},
      {"measurement": "OCT4 expression", "setting": "pluripotent cells", "value": "significantly reduced"}
    ]},
    {"molecule": "B1", "values": [
      {"measurement": "co-expression of endoderm markers EpCAM and CXCR4, cells", "setting": "ESCs", "value": 98.3, "unit": "%"}
    ]},
    {"molecule": "B2", "values": [
      {"measurement": "expression of FoxN1", "setting": "hESCs; BMP4 added to day 15 cultures without prior Noggin, assayed at culture day 22 and 30, protocols #3b and #4b", "value": "failed to induce expression"},
      {"measurement": "FOXN1 expression day 30 vs day 21", "setting": "hESCs; protocol #4c, before and after BMP4 exposure", "value": "significantly higher"}
    ]},
    {"molecule": "B3", "values": [
      {"measurement": "PAX9 expression", "setting": "hESCs; Noggin from day 16 to day 22, protocols #3c and #4c vs #3b and #4b, day 30", "value": "significantly increased"}
    ]}
  ]
}
